Experimental data as given in patent US7355015B1, “Matriptase, a serine protease and its applications” (Georgetown University School of Medicine, priority 1999, dated 2008).
Values belong to the molecule of their own block, whether it stands above or below them.

Legend:
matriptase [1] = biological target: T1, matriptase (Homo sapiens, UniProt Q9Y5Y6); experiment: Cleavage rate assay with fluorescent substrate BOC-Gln-Ala-Arg-AMC after matriptase/HAI-1 complex formation; format: biochemical; details: pH 8.5
T1 construct: from tissue; host or cells: human milk
T1 sequence (Q9Y5Y6 615-855 limits assumed): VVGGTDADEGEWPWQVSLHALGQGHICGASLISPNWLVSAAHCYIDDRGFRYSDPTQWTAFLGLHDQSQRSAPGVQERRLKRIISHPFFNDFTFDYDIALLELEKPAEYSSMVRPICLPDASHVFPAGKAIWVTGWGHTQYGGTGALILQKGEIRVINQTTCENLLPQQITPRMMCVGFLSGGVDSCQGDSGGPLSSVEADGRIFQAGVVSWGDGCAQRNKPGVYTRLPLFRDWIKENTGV
T1 sequence (Q9Y5Y6 190-614 partner limits assumed): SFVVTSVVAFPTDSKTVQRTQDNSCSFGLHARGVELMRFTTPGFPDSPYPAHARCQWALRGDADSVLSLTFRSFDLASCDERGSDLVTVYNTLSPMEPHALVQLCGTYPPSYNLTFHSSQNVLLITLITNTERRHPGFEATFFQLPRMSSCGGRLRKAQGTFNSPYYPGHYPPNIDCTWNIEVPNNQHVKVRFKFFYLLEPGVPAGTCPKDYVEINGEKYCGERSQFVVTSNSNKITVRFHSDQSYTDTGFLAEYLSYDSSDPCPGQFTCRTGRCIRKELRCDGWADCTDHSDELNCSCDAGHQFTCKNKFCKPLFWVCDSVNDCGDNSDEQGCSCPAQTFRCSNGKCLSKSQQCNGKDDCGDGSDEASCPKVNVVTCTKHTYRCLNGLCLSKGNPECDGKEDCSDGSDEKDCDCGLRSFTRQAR
Description: (§1) Matriptase and HAI-1 were isolated from human milk by anti-matriptase mAb 21-9 immunoaffinity chromatography, as described in Example 1, and were maintained in an uncomplexed status in elution buffer, 0.1 M glycine, pH 2.4. This preparation was brought to pH 8.5, incubated at 37° C. for 0, 5, 30 and 60 min., and subjected to immunoblotting using anti-matriptase mAb 21-9 (panel A), gelatin zymography (panel B), and to a cleavage rate assay using the synthetic, fluorescent substrate, BOC—Gin—Ala—Agr-7-amido 4-methylcoumarin (panel C). […] A milk-derived, matriptase-related 110-kDa protease (as indicated in panel A), which was not a complex of matriptase and HAI-1, and whose migration on SDS gel was reduced after boiling (see Example 1).
Proteolytic activity of matriptase determined by cleavage of trypsin substrate, BOC—Gln—Ala—Arg—AMC: A variety of synthetic, fluorescent protease substrates with arginine or lysine as P1 sites can be cleaved by matriptase, as described in Example 2. Among these substrates, t-butyloxycarbonyl (BOC)—Gln—Ala—Arg-7-amino-4-methylcoumarin (Sigma; St. Louis, Mo.) is likely to be the best one. Using this substrate, matriptase was assayed in 20 mM Tris buffer pH 8.5 at 25° C. in a total volume of 200 μl. The final substrate concentration was 0.1 mM. The rate of cleavage was determined with a fluorescence spectrophotometer (Hitachi, F-4500). […]

matriptase [2] = biological target: T1, matriptase; experiment: Gelatin zymography of matriptase/HAI-1 preparation; format: biochemical
Description: as §1
Gelatin zymography: Gelatin zymography was carried out as previously described with some modifications (Brown et al., Biochem J. 101: 214-228 (1966)). Gelatin (1 mg/ml), as a substrate, was copolymerized with regular SDS-polyacrylamide gel. Electrophoresis was performed at a constant current of 15 mA. The gelatin gels were washed 3 times with PBS containing 2% Triton X-100 and incubated in PBS at 37° C. overnight.
Inhibition of matriptase activity by the interaction with HAI-1: HAI-1, a protein containing contains two protease inhibitory domains (Kunitz domains), was initially identified as a binding protein of matriptase. […]

[3] = biological target: T2, 40-kDa fragment of hepatocyte growth factor activator inhibitor-1 (HAI-1)
T2 chain: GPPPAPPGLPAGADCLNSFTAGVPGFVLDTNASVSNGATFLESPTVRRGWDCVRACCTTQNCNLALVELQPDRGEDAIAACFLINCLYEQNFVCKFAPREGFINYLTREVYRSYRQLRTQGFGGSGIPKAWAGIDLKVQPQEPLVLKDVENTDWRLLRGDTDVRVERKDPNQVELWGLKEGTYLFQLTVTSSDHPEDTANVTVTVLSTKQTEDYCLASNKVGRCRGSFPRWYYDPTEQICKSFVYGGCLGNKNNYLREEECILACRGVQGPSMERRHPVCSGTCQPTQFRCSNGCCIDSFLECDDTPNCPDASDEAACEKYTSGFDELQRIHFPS

[4] = biological target: T3, soybean-derived Bowman-Birk inhibitor (BBI), P01055
T3 chain: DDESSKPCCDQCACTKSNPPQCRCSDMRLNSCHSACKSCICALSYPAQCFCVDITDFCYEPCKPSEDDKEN

matriptase [5] = biological target: T4, matriptase (Homo sapiens, UniProt Q9Y5Y6); experiment: Fluorescent substrate assay and zymography with BBI; format: biochemical
T4 sequence (Q9Y5Y6 1-855): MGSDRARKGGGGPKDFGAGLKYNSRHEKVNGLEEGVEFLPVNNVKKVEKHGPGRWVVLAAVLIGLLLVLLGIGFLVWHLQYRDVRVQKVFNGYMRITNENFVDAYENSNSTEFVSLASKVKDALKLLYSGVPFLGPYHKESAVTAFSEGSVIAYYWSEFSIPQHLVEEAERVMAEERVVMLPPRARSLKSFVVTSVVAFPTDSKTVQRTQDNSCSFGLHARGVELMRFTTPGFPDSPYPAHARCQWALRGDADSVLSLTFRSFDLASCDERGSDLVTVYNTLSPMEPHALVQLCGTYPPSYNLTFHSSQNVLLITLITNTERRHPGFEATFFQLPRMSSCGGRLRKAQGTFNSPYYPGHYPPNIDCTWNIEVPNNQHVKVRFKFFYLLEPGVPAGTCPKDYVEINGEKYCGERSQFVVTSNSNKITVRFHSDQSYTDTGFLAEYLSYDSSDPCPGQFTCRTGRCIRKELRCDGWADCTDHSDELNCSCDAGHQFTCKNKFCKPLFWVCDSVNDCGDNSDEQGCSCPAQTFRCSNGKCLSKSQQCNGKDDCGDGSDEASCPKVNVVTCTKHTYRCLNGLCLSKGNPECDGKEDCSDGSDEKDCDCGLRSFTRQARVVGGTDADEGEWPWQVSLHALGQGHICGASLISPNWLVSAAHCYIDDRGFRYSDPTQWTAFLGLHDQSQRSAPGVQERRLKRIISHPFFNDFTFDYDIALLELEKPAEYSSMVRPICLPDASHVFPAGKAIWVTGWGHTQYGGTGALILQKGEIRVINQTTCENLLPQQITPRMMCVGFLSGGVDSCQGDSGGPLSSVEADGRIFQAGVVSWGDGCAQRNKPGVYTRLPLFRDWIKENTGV
Description: A concentrate of BBI, BBIC, can be administered in dosage sufficient to obtain a blood level of 0.001 to 1 mM concentration of BBI in the blood as a means of inhibiting tumor initiation in a susceptible to breast cancer. As indicated by presence of matriptase in nipple aspirate or in tissue from biopsy, including tissue from needle biopsy. […] BBI interacts directly with the serine protease active site on matriptase.

human plasmin = human plasmin (Homo sapiens, UniProt P00747); details: cited from earlier work
human plasma kallikrein = human plasma kallikrein (Homo sapiens, UniProt P03952); details: cited from earlier work
human tissue kallikrein = human tissue kallikrein (Homo sapiens, UniProt P06870); details: cited from earlier work
human factor XIa = human factor XIa (Homo sapiens, UniProt P03951); details: cited from earlier work
[6] = after 30 and 60 min incubation at 37° C.

human tissue kallikrein, sequence (P06870 25-262): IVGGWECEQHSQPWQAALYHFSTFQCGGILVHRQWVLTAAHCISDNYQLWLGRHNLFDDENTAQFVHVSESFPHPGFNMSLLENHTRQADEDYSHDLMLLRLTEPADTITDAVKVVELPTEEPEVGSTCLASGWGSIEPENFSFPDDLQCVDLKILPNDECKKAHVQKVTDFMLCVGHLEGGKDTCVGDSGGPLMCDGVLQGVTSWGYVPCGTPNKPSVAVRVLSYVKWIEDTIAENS
human plasmin, sequence (P00747 581-810 limits assumed): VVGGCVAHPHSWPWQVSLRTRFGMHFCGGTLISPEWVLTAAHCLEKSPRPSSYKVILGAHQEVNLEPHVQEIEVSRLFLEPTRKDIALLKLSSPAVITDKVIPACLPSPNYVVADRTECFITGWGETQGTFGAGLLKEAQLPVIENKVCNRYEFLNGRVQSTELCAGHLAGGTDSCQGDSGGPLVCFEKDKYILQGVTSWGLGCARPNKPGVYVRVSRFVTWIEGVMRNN
human plasmin, sequence (P00747 97-580 partner limits assumed): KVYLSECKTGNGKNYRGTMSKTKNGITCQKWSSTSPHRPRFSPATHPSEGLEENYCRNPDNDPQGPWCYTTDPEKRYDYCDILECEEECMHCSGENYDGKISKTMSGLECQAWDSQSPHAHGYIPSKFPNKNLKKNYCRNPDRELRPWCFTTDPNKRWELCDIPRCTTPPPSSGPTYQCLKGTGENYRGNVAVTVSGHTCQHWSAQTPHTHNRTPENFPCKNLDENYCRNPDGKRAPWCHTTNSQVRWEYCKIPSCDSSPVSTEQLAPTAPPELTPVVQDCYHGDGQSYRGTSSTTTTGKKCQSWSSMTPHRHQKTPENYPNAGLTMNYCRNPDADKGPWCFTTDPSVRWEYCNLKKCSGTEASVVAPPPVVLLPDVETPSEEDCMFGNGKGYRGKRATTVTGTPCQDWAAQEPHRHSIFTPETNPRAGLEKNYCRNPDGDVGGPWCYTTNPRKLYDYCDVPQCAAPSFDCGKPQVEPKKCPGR
human plasma kallikrein, sequence (P03952 20-638): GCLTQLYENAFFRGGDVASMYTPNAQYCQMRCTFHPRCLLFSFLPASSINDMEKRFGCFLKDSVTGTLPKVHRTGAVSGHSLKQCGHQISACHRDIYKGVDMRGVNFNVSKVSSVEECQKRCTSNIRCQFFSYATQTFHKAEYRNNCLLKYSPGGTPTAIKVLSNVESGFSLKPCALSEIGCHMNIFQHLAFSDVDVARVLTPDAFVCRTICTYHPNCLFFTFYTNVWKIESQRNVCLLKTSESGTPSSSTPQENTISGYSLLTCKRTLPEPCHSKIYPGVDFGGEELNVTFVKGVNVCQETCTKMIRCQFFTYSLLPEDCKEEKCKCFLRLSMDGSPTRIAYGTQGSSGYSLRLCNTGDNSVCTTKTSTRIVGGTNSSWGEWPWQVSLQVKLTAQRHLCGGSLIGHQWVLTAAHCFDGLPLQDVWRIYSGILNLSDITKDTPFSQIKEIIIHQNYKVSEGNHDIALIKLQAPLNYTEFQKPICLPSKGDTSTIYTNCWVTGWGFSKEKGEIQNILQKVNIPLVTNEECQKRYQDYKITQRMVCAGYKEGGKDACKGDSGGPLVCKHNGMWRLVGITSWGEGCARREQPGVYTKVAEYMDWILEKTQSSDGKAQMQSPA
human factor XIa, sequence (P03951 388-625 limits assumed): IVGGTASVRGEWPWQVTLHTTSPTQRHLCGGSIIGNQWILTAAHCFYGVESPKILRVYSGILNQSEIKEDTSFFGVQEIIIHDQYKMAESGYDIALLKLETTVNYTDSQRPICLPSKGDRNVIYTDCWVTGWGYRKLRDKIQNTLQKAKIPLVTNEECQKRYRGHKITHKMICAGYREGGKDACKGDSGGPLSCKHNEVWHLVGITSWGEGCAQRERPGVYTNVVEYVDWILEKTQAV
human factor XIa, sequence (P03951 19-387 partner limits assumed): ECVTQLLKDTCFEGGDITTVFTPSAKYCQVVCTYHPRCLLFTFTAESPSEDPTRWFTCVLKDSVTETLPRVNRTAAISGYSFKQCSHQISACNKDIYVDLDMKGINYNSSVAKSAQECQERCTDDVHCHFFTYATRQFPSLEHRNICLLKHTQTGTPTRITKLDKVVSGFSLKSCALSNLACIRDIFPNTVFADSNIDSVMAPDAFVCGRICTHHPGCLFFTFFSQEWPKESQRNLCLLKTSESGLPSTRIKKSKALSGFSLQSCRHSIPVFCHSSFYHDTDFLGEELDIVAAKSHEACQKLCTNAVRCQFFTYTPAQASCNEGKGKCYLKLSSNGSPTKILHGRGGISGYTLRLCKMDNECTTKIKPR

activity by cleavage of fluorescent substrate (matriptase [1]; [6]): negligible activity | cleavage rate for fluorescent substrate, remaining (matriptase [1]; after 5 min incubation at 37° C.): 18% | gelatinolytic activity by gelatin zymography (matriptase [2]; [6]): negligible activity | gelatinolytic activity of complexed matriptase (matriptase [2]; after 5 min incubation at 37° C., versus uncomplexed matriptase): much weaker activity
B1: HAI-1: Kunitz-type serine protease inhibitor, cognate inhibitor of matriptase, co-purified from human milk (protein, UniProt O43278 36-529, looked up)
Kunitz-type protease …: GPPPAPPGLPAGADCLNSFTAGVPGFVLDTNASVSNGATFLESPTVRRGWDCVRACCTTQNCNLALVELQPDRGEDAIAACFLINCLYEQNFVCKFAPREGFINYLTREVYRSYRQLRTQGFGGSGIPKAWAGIDLKVQPQEPLVLKDVENTDWRLLRGDTDVRVERKDPNQVELWGLKEGTYLFQLTVTSSDHPEDTANVTVTVLSTKQTEDYCLASNKVGRCRGSFPRWYYDPTEQICKSFVYGGCLGNKNNYLREEECILACRGVQGGPLRGSSGAQATFPQGPSMERRHPVCSGTCQPTQFRCSNGCCIDSFLECDDTPNCPDASDEAACEKYTSGFDELQRIHFPSDKGHCVDLPDTGLCKESIPRWYYNPFSEHCARFTYGGCYGNKNNFEEEQQCLESCRGISKKDVFGLRREIPIPSTGSVEMAVAVFLVICIVVVVAILGYCFFKNQRKDFHGHHHHPPPTPASSTVSTTEDTEHLVYNHTTRPL

B2: two-chain (active) form of matriptase, milk-derived, released from its complexes (protein)
chain 1: SFVVTSVVAFPTDSKTVQRTQDNSCSFGLHARGVELMRFTTPGFPDSPYPAHARCQWALRGDADSVLSLTFRSFDLASCDERGSDLVTVYNTLSPMEPHALVQLCGTYPPSYNLTFHSSQNVLLITLITNTERRHPGFEATFFQLPRMSSCGGRLRKAQGTFNSPYYPGHYPPNIDCTWNIEVPNNQHVKVRFKFFYLLEPRRACGTCPKDYVEINGEKYCGERSQFVVTSNSNKITVRFHSDQSYTDTGFLAEYLSYDSSDPCPGQFTCRTGRCIRKELRCDGWADCTDHSDELNCSCDAGHQFTCKNKFCKPLFWVCDSVNDCGDNSDEQGCSCPAQTFRCSNGKCLSKSQQCNGKDDCGDGSDEASCPKVNVVTCTKHTYRCLNGLCLSKGNPECDGKEDCSDGSDEKDCDCGLRSFTRQAR
chain 2: VVGGTDADEGEWPWQVSLHALGQGHICGASLISPNWLVSAAHCYIDDRGFRYSDPTQWTAFLGLHDQSQRSAPGVQERRLKRIISHPFFNDFTFDYDIALLELEKPAEYSSMVRPICLPDASHVFPAGKAIWVTGWGHTQYGGTGALILQKGEIRVINQTTCENLLPQQITPRMMCVGFLSGGVDSCQGDSGGPLSSVEADGRIFQAGVVSWGDGCAQRNKPGVYTRLPLFRDWIKENTGV
cleavage rate of the fluorescent substrate BOC-Gln-Ala-Arg-7-amido-4-methylcoumarin after 5 min at 37° C., pH 8.5 [3]: the cleavage rate for fluorescent substrate was significantly reduced, down to 18% | gelatin zymography and cleavage of fluorescent substrate after 30 and 60 min at 37° C., pH 8.5 [3]: negligible activity was observed by gelatin zymography (panel B) and by cleavage of fluorescent substrate | rate of cleavage of a synthetic, fluorescent substrate [3]: the rate of cleavage of a synthetic, fluorescent substrate by matriptase was decreased following complex formation | matriptase activity by fluorescent substrate assay and zymography [4]: BBI can decrease matriptase activity in a dose-dependent manner

B3: BBI: soybean-derived Bowman-Birk inhibitor of serine proteases (protein)
chain: DDESSKPCCDQCACTKSNPPQCRCSDMRLNSCHSACKSCICALSYPAQCFCVDITDFCYEPCKPSEDDKEN
effect on matriptase activity (matriptase [5]): decrease matriptase activity in a dose-dependent manner

B4: placenta bikunin: second Kunitz-type inhibitor with two Kunitz domains, isolated from human placenta (protein, UniProt O43291 28-252, looked up)
Kunitz-type protease …: ADRERSIHDFCLVSKVVGRCRASMPRWWYNVTDGSCQLFVYGGCDGNSNNYLTKEECLKKCATVTENATGDLATSRNAADSSVPSAPRRQDSEDHSSDMFNYEEYCTANAVTGPCRASFPRWYFDVERNSCNNFIYGGCRGNKNSYRSEEACMLRCFRQQENPPLPLGSKVVVLAGLFVMVLILFLGASMVYLIRVARRNQERALRTVWSSGDDKEQLVKNTYVL
inhibition of human plasmin (human plasmin): strong inhibition | inhibition of human plasma kallikrein (human plasma kallikrein): strong inhibition | inhibition of human tissue kallikrein (human tissue kallikrein): strong inhibition | inhibition of human factor XIa (human factor XIa): strong inhibition
